*1 amine or outer side, *2 acyl side, *3 side chain or, on linkers, in order; H or OH if unused. Where no end group is shown, it is not given here. [ ]: non-standard residue; d: D form. The star is where a group is joined. morpholino‑(ethyloxycarbonyl) = morpholino-(ethyloxycarbonyl) N-terminal blocking group, O=C(OCCN1CCOCC1)*; NH(4-MeO-2-naphthyl) = COc1cc(N*)cc2ccccc12; Glutaryl = O=C(CCCC(=O)[*:2])[*:1]; Suc = O=C(CCC(=O)[*:2])[*:1]; 4Amb = NCc1ccc(C(=O)O)cc1; NMeA = CN[C@@H](C)C(=O)O

For one assay, the target named is T1, FAP (Homo sapiens, UniProt Q12884).
T1 construct: Cell extract from 293 cells stably transfected with FAP prepared as described; expressed in transfected cells; detergent extract used
T1 sequence (Q12884 1-760): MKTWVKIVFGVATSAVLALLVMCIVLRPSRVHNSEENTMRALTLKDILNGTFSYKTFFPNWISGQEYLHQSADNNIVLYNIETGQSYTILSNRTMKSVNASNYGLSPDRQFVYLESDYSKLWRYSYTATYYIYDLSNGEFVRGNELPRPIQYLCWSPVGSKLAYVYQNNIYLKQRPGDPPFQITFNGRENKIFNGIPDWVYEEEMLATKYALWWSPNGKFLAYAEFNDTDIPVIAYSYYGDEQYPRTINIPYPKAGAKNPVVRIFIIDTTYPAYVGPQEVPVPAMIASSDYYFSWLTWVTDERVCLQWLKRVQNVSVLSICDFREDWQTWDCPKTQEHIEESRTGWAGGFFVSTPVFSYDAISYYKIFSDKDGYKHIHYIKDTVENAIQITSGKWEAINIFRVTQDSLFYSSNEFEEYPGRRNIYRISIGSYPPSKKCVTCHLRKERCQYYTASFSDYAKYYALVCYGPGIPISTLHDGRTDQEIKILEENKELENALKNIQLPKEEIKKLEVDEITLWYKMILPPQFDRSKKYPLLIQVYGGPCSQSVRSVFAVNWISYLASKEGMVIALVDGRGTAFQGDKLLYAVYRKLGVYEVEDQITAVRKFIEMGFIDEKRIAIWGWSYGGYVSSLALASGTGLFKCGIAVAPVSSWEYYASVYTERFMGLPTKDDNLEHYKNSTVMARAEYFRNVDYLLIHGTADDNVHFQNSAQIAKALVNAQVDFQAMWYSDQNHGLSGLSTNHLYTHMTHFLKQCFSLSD
The assay is described as follows: Assay for cleavage of MNA substrates by FAP. The conditions noted are these: 1 ng FAP enzyme in 293 cell extract, 20 μl 2.5 mM substrate (a few diluted further), room temperature 1 hour, control 293 extract subtracted. It counts as biochemical. From the text: To identify preferred FAPα peptide substrates, blocked oligopeptides composed of natural amino carboxylic acids were synthesized and coupled to Proline-4-methoxy-β-napthylamine (Pro-MNA) using methods known to the art (E. Wünsch, Synthese von Peptiden, in Methoden der organischen Chemie, Houben-Weyl (Eds. E. Müller, 0. Bayer), Vol. XV, Part 1 and 2, Georg Thieme Verlag, Stuttgart, 1974). The turnover and cleavage rate have been determined with the aid pf the following assay:
Assay for Cleavage of MNA Substrates by FAP:
Cell extract from 293 cells stably transfected with FAP prepared as described (see Park, et al., Fibroblast Activation Protein, a Dual Specificity Serine Protease expressed in human tumor stromal fibroblasts. (1999) J. Biol. Chem. 36505-12.). A similar extract was also prepared from parental 293 control cells without FAP. The FAP concentration in the FAP-transfected cell extract was estimated by immunoassay and 1 ng enzyme (diluted in buffer A) was used per assay. FAP-negative 293 control cell extract was used at the same dilution (also in buffer A) as a negative control. Substrate was initially dissolved in dimethylformamide at a concentration of 200 mM and diluted in buffer A to a final concentration of 2.5 mM. A few substrates were not soluble at this concentration and had to be diluted further.
10 μl 10% DMSO in buffer A
70 μl diluted FAP cell extract containing 1 ng FAP enzyme (OR control 293 cell extract without FAP)
Mix, incubate at room temperature for 1 hour, and measure fluorescence in Fluorostar fluorimeter at the following wavelengths:
MNA conjugates: Excitation: 355 nm, Emission: 405 nm.
The fluorescence measured in the samples treated with control 293 control cell extracts without FAP is subtracted from the values measured in the samples treated with 1 ng FAP enzyme.
Regarding “1-Methylpyrrol-2-ylcarbonyl Pro-Ala-Gly-Pro-MNA ({1‑methylpyrrol‑2‑ylcarbonyl}-PAGP-{NH(4-MeO-2-naphthyl)})”, the “% Turnover” value turned out to be 0.13% and the “Cleavage” value turned out to be 0.33 µM.

In the case of 2-Fluorphenylacetyl-Gly-Pro-MNA, the “% Turnover” value stood at 0.26% and the “Cleavage” value amounted to 1.28 µM.

As for “2-Morpholino-ethyl-Pro-Ala-Gly-Pro-MNA ({2‑morpholino‑ethyl}-PAGP-{NH(4-MeO-2-naphthyl)})”, the “% Turnover” value amounted to 0.26% and the “Cleavage” value was found to be 0.64 µM.

Regarding 3 -Pyridylmethyloxycarbonyl-Gly-Pro-MNA, the “% Turnover” value is recorded as 0.72% and the “Cleavage” value was 3.58 µM.

Take 3,5-Difluorphenylacetyl-Gly-Pro-MNA: the “% Turnover” value worked out at 2.26% and the “Cleavage” value came to 2.26 µM.

On to “3-Carboxyphenylsulfonyl-Pro-Ala-Gly-Pro-MNA ({3‑carboxyphenylsulfonyl}-PAGP-{NH(4-MeO-2-naphthyl)})”, for which the “% Turnover” value worked out at 0.58% and the “Cleavage” value came out at 2.88 µM.

For 3-Fluorphenylacetyl-Gly-Pro-MNA, the “% Turnover” value is reported as 0.35% and the “Cleavage” value came to 1.77 µM.

On to 3-Pyridylacetyl-Gly-Pro-MNA, for which the “% Turnover” value stood at 1.82% and the “Cleavage” value amounted to 9.12 µM.

As to “4-(2-Aminothiazol-5-yl)-acetyl-Pro-Ala-Gly-Pro-MNA ({(2-aminothiazol-5-yl)‑acetyl}-PAGP-{NH(4-MeO-2-naphthyl)})”, the “% Turnover” value worked out at 0.39% and the “Cleavage” value amounted to 1.94 µM.

In the case of 4-Amino-Phenylacetyl-Gly-Pro-MNA, the “% Turnover” value came out at 0.6% and the “Cleavage” value is 3 µM.

Consider “4-Aminomethylbenzoyl-Pro-Ala-Gly-Pro-MNA ([4Amb]PAGP-{NH(4-MeO-2-naphthyl)})”, for which the “% Turnover” value is 0.24% and the “Cleavage” value is 1.21 µM.

As for “4-Aminomethylphenylacetyl-Pro-Ala-Gly-Pro-MNA ({4‑aminomethylphenylacetyl}-PAGP-{NH(4-MeO-2-naphthyl)})”, the “% Turnover” value is 0.26% and the “Cleavage” value came out at 1.28 µM.

For “4-Dimethylaminobenzoyl-Pro-Ala-Gly-Pro-MNA ({4‑dimethylaminobenzoyl}-PAGP-{NH(4-MeO-2-naphthyl)})”, the “% Turnover” value is recorded as 0.37% and the “Cleavage” value is 1.85 µM.

With 4-Fluorphenylacetyl-Gly-Pro-MNA, the “% Turnover” value was found to be 0.42% and the “Cleavage” value stood at 2.08 µM.

In the case of “4-Hydroxyphenylacetyl-Pro-Ala-Gly-Pro-MNA ({4‑hydroxyphenylacetyl}-PAGP-{NH(4-MeO-2-naphthyl)})”, the “% Turnover” value turned out to be 0.69% and the “Cleavage” value turned out to be 1.72 µM.

As for 4-Pyridylmethyloxycarbonyl-Gly-Pro-MNA, the “% Turnover” value is 1.18% and the “Cleavage” value came out at 5.92 µM.

As for “4-Pyridylmethyloxycarbonyl-Pro-Ala-Gly-Pro-MNA ({4‑pyridylmethyloxycarbonyl}-PAGP-{NH(4-MeO-2-naphthyl)})”, the “% Turnover” value is given as 1.28% and the “Cleavage” value is 6.38 µM.

On to “Glutaryl-Pro-Ala-Gly-Pro-MNA (Glutaryl-PAGP-{NH(4-MeO-2-naphthyl)}; SMILES COc1cc(NC(=O)[C@@H]2CCCN2C(=O)CNC(=O)[C@H](C)NC(=O)[C@@H]2CCCN2C(=O)CCCC(=O)O)cc2ccccc12)”, for which the “% Turnover” value worked out at 0.3% and the “Cleavage” value was found to be 1.48 µM.

“Malonyl-Pro-Ala-Gly-Pro-MNA (malonyl-PAGP-{NH(4-MeO-2-naphthyl)})”: the “% Turnover” value amounted to 0.21% and the “Cleavage” value was determined as 1.05 µM.

Consider “Morpholino-(ethyloxycarbonyl)-Pro-Ala-Gly-Pro-MNA ({morpholino‑(ethyloxycarbonyl)}-PAGP-{NH(4-MeO-2-naphthyl)}; SMILES COc1cc(NC(=O)[C@@H]2CCCN2C(=O)CNC(=O)[C@H](C)NC(=O)[C@@H]2CCCN2C(=O)OCCN2CCOCC2)cc2ccccc12)”, for which the “% Turnover” value was 0.65% and the “Cleavage” value came to 3.25 µM.

For “Morpholino-carbonyl-Pro-Ala-Gly-Pro-MNA ({morpholino‑carbonyl}-PAGP-{NH(4-MeO-2-naphthyl)})”, the “% Turnover” value is recorded as 0.6% and the “Cleavage” value came out at 2.99 µM.

“Prazin-2-ylcarbonyl-Pro-Ala-Gly-Pro-MNA ({pyrazin‑2‑ylcarbonyl}-PAGP-{NH(4-MeO-2-naphthyl)})”: the “% Turnover” value was 0.56% and the “Cleavage” value worked out at 0.7 µM.

“Pyrid-3-ylmethyloxycarbonyl-2-Aze-Ala-Gly-Pro-MNA”: the “% Turnover” value amounted to 3.42% and the “Cleavage” value was determined as 17.1 µM.

Take “Pyrid-3-ylmethyloxycarbonyl-MeAla-Ala-Gly-Pro-MNA ({pyrid‑3‑ylmethyloxycarbonyl}-[NMeA]AGP-{NH(4-MeO-2-naphthyl)}) [MeAla represents a N-methylalanin moiety]”: the “% Turnover” value was 1.27% and the “Cleavage” value is 6.31 µM.

On to “Pyrid-3-ylmethyloxycarbonyl-Pip-Ala-Gly-Pro-MNA”, for which the “% Turnover” value stood at 0.56% and the “Cleavage” value was 2.78 µM.

Take “Pyrid-4-ylmethyloxycarbonyl-2-Aze-Ala-Gly-Pro-MNA”: the “% Turnover” value is 1.61% and the “Cleavage” value was 8.07 µM.

As for “Pyrid-4-ylmethyloxycarbonyl-Pip-Ala-Gly-Pro-MNA”, the “% Turnover” value amounted to 0.43% and the “Cleavage” value amounted to 2.16 µM.

“Pyridin-3-ylmethoxycarbonyl-Pro-Ala-Gly-Pro-MNA ({pyridin‑3‑ylmethoxycarbonyl}-PAGP-{NH(4-MeO-2-naphthyl)})”: the “% Turnover” value stood at 1.77% and the “Cleavage” value came to 8.86 µM.

For “Succinyl-Pro-Ala-Gly-Pro-MNA (Suc-PAGP-{NH(4-MeO-2-naphthyl)}; SMILES COc1cc(NC(=O)[C@@H]2CCCN2C(=O)CNC(=O)[C@H](C)NC(=O)[C@@H]2CCCN2C(=O)CCC(=O)O)cc2ccccc12)”, the “% Turnover” value was determined as 0.29% and the “Cleavage” value was 1.44 µM.

For another assay, the target named is T2, FAPα dimers (Homo sapiens, UniProt Q12884).
T2 sequence (Q12884 1-760): T1 sequence (Q12884 1-760)
Assay: not given
The conditions noted are these: membrane overlay assay, WO 97/34927; cited from earlier work.
In the case of “Ala-Pro-7-amino-4-trifluoromethyl coumarin”, the “cleavage of dipeptide coumarin substrate” value is recorded as “able to cleave”.

Turning to “Gly-Pro-7-amino-4-trifluoromethyl coumarin”, the “cleavage of dipeptide coumarin substrate” value is “able to cleave”.

For “Lys-Pro-7-amino-4-trifluoromethyl coumarin”, the “cleavage of dipeptide coumarin substrate” value is “able to cleave”.

These data come from patent publication US20030232742A1, “FAP-activated anti-tumor compounds” (priority 2000, published 2003).
